As a reminder, the Kd is a measure of binding affinity in units of concentration. A higher Kd goes with weaker binding.

Kd data for five substances are collected here from patent publication US20180355012A1.

In assay [1] the target is HLA-A1: … pMHC complex (MageA3 tumor specific antigen). In words: BLI (forteBIO Oke), biotinylated pMHC on SA sensor, soluble TCR in solution, 1:1 fit. On the technique in general: BLI is a label-free optical method that tracks binding on a fibre tip over time.
Assay [2] addresses HLA-A2/… pMHC complex (NY-ESO-1 tumor specific antigen). The assay is described as above.
In assay [3] the target is HLA-B4405: … pMHC complex.

As to “MGA3 TCR with an artificial interchain disulfide bond between position 89 of TRAC*01 exon 1 and position 19 of TRBC1*01 or TRBC2*01 exon 1”, the Kd in assay [1] came out at 2.04 µM.
The same measure, in the same setting: for “MGA3 TCR with an artificial interchain disulfide bond between position 10 of TRAC*01 exon 1 and position 20 of TRBC1*01 or TRBC2*01 exon 1” the value was 3.45 µM.
“1G4 TCR with an artificial interchain disulfide bond between position 53 of TRAC*01 exon 1 and position 54 of TRBC1*01 or TRBC2*01 exon 1” had a Kd in assay [2] of 6.96 µM.
Substance “LC13 TCR with an artificial interchain disulfide bond between position 10 of TRAC*01 exon 1 and posi” gave a dissociation constant (Kd) in assay [3] of 10 µM.
Consider “MGA3 TCR with an artificial interchain disulfide bond between position 53 of TRAC*01 exon 1 and position 54 of TRBC1*01 or TRBC2*01 exon 1”, for which the Kd in assay [1] stood at 1.42 µM.
